Values quoted from earlier work as cited in PMC3575173.

Target: TAMRA-TRTK-12 (UniProt P52907)

Kd: 1190 nM
Substance: S100B (from UniProt P04271)
